Experimental data as given in patent US20200199244A1 (published 2020).
“And” between values parts separate entries of the source, which are not always exact repeats. Equal entries are not always repeated.

Columns and labels:
[1] = target: T1, human CD40 (BMS, CY24FEB06-01) (human, UniProt P25942 21-193); test: ELISA RBA, competition with IZ-CD40L for soluble human CD40;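 note: Neutravidin-coated 384-well plates, dAb–human CD40 complex incubated 2 h at room temperature, read-out as absorbance at 450 nm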
T1 construct: Soluble human CD40 reagent of the ELISA RBA
T1 sequence (P25942 21-193 limits assumed): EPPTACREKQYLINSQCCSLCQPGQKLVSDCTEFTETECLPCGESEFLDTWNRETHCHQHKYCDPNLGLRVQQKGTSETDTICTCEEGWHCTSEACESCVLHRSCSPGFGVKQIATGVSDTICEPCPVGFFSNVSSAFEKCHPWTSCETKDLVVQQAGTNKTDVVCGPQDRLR
Method: Clear walled High Bind, 384-well plates (Corning, UK) were coated with 25 μl of 1 μg/ml Neutravidin in 0.2 M carbonate-bicarbonate buffer, pH 9.4 overnight at 4° C. The following day, assay plates were washed with 0.1% (v/v) Tween PBS buffer, blocked with 1% (w/v) BSA in PBS for 1 hour at room temperature and washed again. […] Following washing of the assay plate, the dAb:human CD40 complex was incubated in the assay plate at room temperature for 2 hours with gentle agitation. […] Absorbance signal was measured using a SpectraMax® M5e plate reader (Molecular Devices) at 450 nm following neutralization with 1M HCl solution.

human CD40 = human CD40 (human, UniProt P25942 21-277); test: cell-based or functional assay
Chain of human CD40 (P25942 21-277 limits assumed): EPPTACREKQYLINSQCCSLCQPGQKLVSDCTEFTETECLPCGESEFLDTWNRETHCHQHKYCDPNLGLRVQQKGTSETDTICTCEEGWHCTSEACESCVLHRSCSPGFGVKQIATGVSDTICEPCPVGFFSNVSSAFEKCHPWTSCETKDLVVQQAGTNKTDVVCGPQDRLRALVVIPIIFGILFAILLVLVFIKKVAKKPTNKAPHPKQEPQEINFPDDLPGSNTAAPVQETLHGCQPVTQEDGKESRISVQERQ

Row | Binder | EC50 [1] | also measured
1 | BMS3h-56-246 (other, domain antibody (dAb): single human VH domain) VH: EVQLLESGGGLVQPGGSLRLSCAASGFTFRDYEMWWVRQAPGKGLERVSAINPWGTLTYYADSVKGRFTISRDNSKNTLYLQMNSLRAEDTAVYYCAKLPFTFEDWGQGTLVTVSS | 11.1 nM | –
2 | BMS3h-56-244 (other, domain antibody (dAb): single human VH domain) VH: EVQLLESGGGLVQPGGSLRLSCAASGFTFRDYEMWWVRQAPGKGLERVSAINPWGGLTYYADSVKGRFTISRDNSKNTLYLQMNSLRAEDTAVYYCAKLPFTFDDWGQGTLVTVSS | 6 nM | –
3 | BMS3h-56-224 (other, domain antibody (dAb): single human VH domain) VH: EVQLLESGGGLVQPGGSLRLSCAASGFTFRDYEMWWVRQAPGKGLERVSAINPWGQLTYYADSVKGRFTISRDNSKNTLYLQMNSLRAEDTAVYYCAKLPFTFEDWGQGTLVTVSS | 2.1 nM and 4.2 nM | –
4 | BMS3h-56-205 (other, domain antibody (dAb): single human VH domain) VH: EVQLLESGGGLVQPGGSLRLSCAASGFTFRDYEMWWVRQAPGKGLERVSAINPQGTRTYYADSVKGRFTISRDNSKNTLYLQMNSLRAEDTAVYYCAKLPFYFSEWGQGTLVTVSS | 9 nM | –
5 | BMS3h-56-207 (other, domain antibody (dAb): single human VH domain) VH: EVQLLESGGGLVQPGGSLRLSCAASGFTFRDYEMWWVRQAPGKGLERVSAINPQGTRTYYADSVKGRFTISRDNSKNTLYLQMNSLRAEDTAVYYCAKLPFPFSEWGQGTLVTVSS | 7.3 nM | –
6 | BMS3h-56-248 (other, domain antibody (dAb): single human VH domain) VH: EVQLLESGGGLVQPGGSLRLSCAASGFTFRDYEMWWVRQAPGKGLERVSAINPYGNLTYYADSVKGRFTISRDNSKNTLYLQMNSLRAEDTAVYYCAKLPFTFDDWGQGTLVTVSS | 0.7 nM | –
7 | BMS3h-56-204 (other, domain antibody (dAb): single human VH domain) VH: EVQLLESGGGLVQPGGSLRLSCAASGFTFRDYEMWWVRQAPGKGLERVSAINPQGTRTYYADSVKGRFTISRDNSKNTLYLQMNSLRAEDTAVYYCAKLPTYFKDWGQGTLVTVSS | 4.5 nM | –
8 | BMS3h-56-253 (other, domain antibody (dAb): single human VH domain) VH: EVQLLESGGGLVQPGGSLRLSCAASGFTFRDYEMWWVRQAPGKGLERVSAINPAGGYTYYADSVKGRFTISRDNSKNTLYLQMNSLRAEDTAVYHCAKLPFTFEDWGQGTLVTVSS | 1.3 nM | –
9 | BMS3h-56-223 (other, domain antibody (dAb): single human VH domain) VH: EVQLLESGGGLVQPGGSLRLSCAASGFTFRDYEMWWVRQAPGRGLERVSAINPPGMLTYYADSVKGRFTISRDNSKNTLYLQMNSLRAEDTAVYYCAKLPFTFDDWGQGTLVTVSS | 5 nM | –
10 | BMS3h-37-205 (other, domain antibody (dAb): single human VH domain) VH: EVQLLESGGGLVQPGGSLRLSCAASGFTFEWYEMQWVRRAPGKGLEWVSAISGDGYRTYYADSVKGRFTISRDNSKNTLYLQMNSLRAEDTAVYYCAKELEYFDYWGRGTLVTVSS | 3.1 nM and 4.4 nM | –
11 | BMS3h-37-207 (other, domain antibody (dAb): single human VH domain) VH: EVQLLESGGGLVQPGGSLRLSCAASGFTFEWYEMQWVRRAPGKGLEWVSAISGDGYRTYYADSVKGRFTISRDNSKNTLYLQMNSLRAEDTAVYYCAKELAFFDYWGRGTLVTVSS | 2.5 nM and 6.6 nM | –
12 | BMS3h-37-213 (other, domain antibody (dAb): single human VH domain) VH: EVQLLESGGGLVQPGGSLRLSCAASGFTFEWYEMQWVRRAPGKGLEWVSAISGDGYRTYYADSVKGRFTISRDNSKNTLYLQMNSLRAEDTAVYYCAKELLFFDYRGRGTLVTVSS | 16 nM | –
13 | BMS3h-37-212 (other, domain antibody (dAb): single human VH domain) VH: EVQLLESGGGLVRPGGSLRLSCAASGFTFEWYEMQWVRRAPGKGLEWVSAISGDGYRTYYADSVKGRFTISRDNSKNTLYLQMNSLRAEDTAVYYCAKELEFFDYWGRGTLVTVSS | 24 nM | –
14 | BMS3h-37-206 (other, domain antibody (dAb): single human VH domain) VH: EVQLLESGGGLVQPGGSLRLSCAASGFTFEWYEMQWVRRAPGKGLEWVSAISGDGYRTYYADSVKGRFTISRDNSKNTLYLQMNSLRAEDTAVYYCAKGLEYFDYWGRGTLVTVSS | 3.2 nM and 8.9 nM | –
15 | BMS3h-38-219 (other) VH: EVQLLASGGGLVQPGGSLRLSCAASGFTFEEEEMIWVRQAPGKGLEWVSSISRSGGSTYYADSVKGRFTISRDNSKNTLYLQMNSLRAEDTAVYYCGKEPFRYDYWGQGTLVTVSS | – | CHO-hCD40L-driven DC Activation IL-12 EC50 (human CD40): 9 nM; CHO-hCD40L-driven Human B Cell Proliferation EC50 (human CD40): 93 nM; T-B cell MLR EC50 (human CD40): 164 nM; hIZCD40L-driven Human B Cell Proliferation EC50 (human CD40): 2 nM
16 | BMS3h-38-231 (other) VH: EVQLLASGGGLVQPGGSLRLSCAASGFPFEEEEMIWVRQAPGKGLEWVSAISRQGWSTYYADSVKGRFTISRDNSKNTLYLQMNSLRAEDTAVYYCGKEPFRYDYWGQGTLVTVSS | – | hIZCD40L-driven Human B Cell Proliferation EC50 (human CD40): 0.66 nM
17 | BMS3h-38-238 (other, domain antibody (dAb): single human VH domain) VH: EVQLLASGGGLVQPGGSLRLSCAASGFTFEEEEMIWVRQAPGKGLEWVSAISRSGYSTYYADSVKGRFTISRDNSKNTLYLQMNSLRAEDTAVYYCGKEPFRYDYWGQGTLVTVSS | 5.1 nM | –
18 | BMS3h-38-228 (other) VH: EVQLLASGGGLVQPGGSLRLSCAASGFTFEEEEMIWVRQAPGKGLEWVSAISRNGFSTYYADSVKGRFTISRDNSKNTLYLQMNSLRAEDTAVYYCGKEPFRYDYWGQGTLVTVSS | – | hIZCD40L-driven Human B Cell Proliferation EC50 (human CD40): 0.7 nM
19 | BMS3h-38-223 (other, domain antibody (dAb): single human VH domain) VH: EVQLLASGGGLVQPGGSLRLSCAASGFTFEEEEMIWVRQAPGKGLEWVSAISGSGGSTYYADSVKGRFTISRDNSKNTLYLQMNSLRAEDTAVYYCGKEPFMYDYWGQGTLVTVSS | 5.7 nM | –
20 | BMS3h-38-218 (other, domain antibody (dAb): single human VH domain) VH: EVQLLASGGGLVQPGGSLRLSCAASGFTFEEEEMIWVRQAPGKGLEWVSAISRHGWSTYYADSVKGRFTISRDNSKNTLYLQMNSLRAEDTAVYYCGKEPFRYDYWGQGTLVTVSS | 3 nM | –
21 | BMS3h-38-201 (other, domain antibody (dAb): single human VH domain) VH: EVQLLASGGGLVQPGGSLRLSCAASGFTFEEEEMIWVRQAPGKGLEWVSAISGSGGSTYYADSVKGRFTISRDNSKNTLYLQMNSLRAEDTAVYYCGKEPFYYDYWGQGTLVTVSS | 3.4 nM | –
22 | BMS3h-38-202 (other, domain antibody (dAb): single human VH domain) VH: EVQLLASGGGLVQPGGSLRLSCAASGFTFEEEEMIWVRQAPGKGLEWVSAISGSGGSTYYADSVKGRFTISRDNSKNTLYLQMNSLRAEDTAVYYCGKEPFYFDYWGQGTLVTVSS | 4.8 nM | –
23 | BMS3h-38-215 (other, domain antibody (dAb): single human VH domain) VH: EVQLLASGGGLVQPGGSLRLSCAASGFTFEEEEMIWVRQAPGKGLEWVSAISGLGWSTYYADSVKGRFTISRDNSKNTLYLQMNSLRAEDTAVYYCGKEPFRYDYWGQGTLVTVSS | 2.3 nM and 3.6 nM | –
24 | BMS3h-38-205 (other, domain antibody (dAb): single human VH domain) VH: EVQLLASGGGLVQPGGSLRLSCAASGFTFFAAEMIWVRQAPGKGLEWVSAISGSGGSTYYADSVKGRFTISRDNSKNTLYLQMNSLRAEDTAVYYCGKEPFRYDYWGQGTLVTVSS | 4.5 nM and 11.1 nM | –

Second part, led by results:

Row | EC50 [1] | Binder | also measured
25 | 4.1 nM | BMS3h-56-229 (other, domain antibody (dAb): single human VH domain) VH: EVQLLESGGGLVQPGGSLRLSCAASGFTFRDYEMWWVRQAPGKGLERVSAINPYGSLTYYADSVKGRFTISRDNSKNTLYLQMNSLRAEDTAVYYCAKLPFTFDDWGQGTLVTVSS | –
26 | 2.7 nM | BMS3h-56-239 (other, domain antibody (dAb): single human VH domain) VH: EVQLLESGGGLVQPGGSLRLSCAASGFTFRDYEMWWVRQAPGKGLERVSAINPWGSLTYYADSVKGRFTISRDNSKNTLYLQMNSLRAEDTAVYYCAKLPFTFDDWGQGTLVTVSS | –
27 | 2.8 nM and 3.7 nM | BMS3h-56-232 (other, domain antibody (dAb): single human VH domain) VH: EVQLLESGGGLVQPGGSLRLSCAASGFTFRDYEMWWVRQAPGKGLERVSAINPWGSHTYYADSVKGRFTISRDNSKNTLYLQMNSLRAEDTAVYYCAKLPFTFDDWGQGTLVTVSS | –
28 | 9.9 nM | BMS3h-56-243 (other, domain antibody (dAb): single human VH domain) VH: EVQLLESGGGLVQPGGSLRLSCAASGFTFRDYEMWWVRQAPGKGLERVSAINPWGGFTYYADSVKGRFTISRDNSKNTLYLQMNSLRAEDTAVYYCAKLPFTFEDWGQGTLVTVSS | –
29 | 4.2 nM | BMS3h-56-220 (other, domain antibody (dAb): single human VH domain) VH: EVQLLESGGGLVQPGGSLRLSCAASGFTFRDYEMWWVRQAPGKGLERVSAINPYGGLTYYADSVKGRFTISRDNSKNTLYLQMNSLRAEDTAVYYCAKLPFTFDDWGQGTLVTVSS | –
30 | 2.9 nM | BMS3h-56-225 (other, domain antibody (dAb): single human VH domain) VH: EVQLLESGGGLVQPGGSLRLSCAASGFTFRDYEMWWVRQAPGKGLERVSAINPWGGYTYYADSVKGRFTISRDNSKNTLYLQMNSLRAEDTAVYYCAKLPFTFDDWGQGTLVTVSS | –
31 | 5.5 nM | BMS3h-38-203 (other, domain antibody (dAb): single human VH domain) VH: EVQLLASGGGLVQPGGSLRLSCAASGFTFEEKEMIWVRQAPGKGLEWVSAISGSGGSTYYADSVKGRFTISRDNSKNTLYLQMNSLRAEDTAVYYCGKEPFFYDYWGQGTLVTVSS | –
32 | 4.8 nM | BMS3h-38-204 (other, domain antibody (dAb): single human VH domain) VH: EVQLLASGGGLVQPGGSLRLSCAASGFTFPQEEMIWVRQAPGKGLEWVSAISGSGGSTYYADSVKGRFTISRDNSKNTLYLQMNSLRAEDTAVYYCGKEPFRYDYWGQGTLVTVSS | –
33 | 10.2 nM | BMS3h-38-209 (other, domain antibody (dAb): single human VH domain) VH: EVQLLASGGGLVQPGGSLRLSCAASGFTFEEEEMIWVRQAPGKGLEWVSAISRLGWSTYYADSVKGRFTISRDNSKNTLYLQMNSLRAEDTAVYYCGKEPFRYDYWGQGTLVTVSS | –
34 | 1.8 nM and 2.2 nM | BMS3h-38-217 (other, domain antibody (dAb): single human VH domain) VH: EVQLLASGGGLVQPGGSLRLSCAASGFTFEEEEMIWVRQAPGKGLEWVSAISRRGYSTYYADSVKGRFTISRDNSKNTLYLQMNSLRAEDTAVYYCGKEPFRYDYWGQGTLVTVSS | –
